Data from patent publication US8617548B2 (priority 2006, dated 2013).
Read-outs that look alike come from different tables or passages of the source.

B1: ETI-204 (antibody, chains of the INN, looked up, V domains shown)
VH: QVQLQQSGPELKKPGASVKVSCKDSGYAFSSSWMNWVRQAPGQGLEWIGRIYPGDGDTNYNGKFQGRVTITADKSSSTAYMELSSLRSEDTAVYFCARSGLLRYAMDYWGQGTLVTVSS
VL: DIQMTQSPSSLSASVGDRVTITCRASQDIRNYLNWYQQKPGKAVKLLIYYTSRLLPGVPSRFSGSGSGTDYSLTISSQEQEDIGTYFCQQGNTLPWTFGQGTKVEIR

What was measured:
B. anthracis = tested on: B. anthracis; parameters: species or system New Zealand White (NZW) rabbits; conditions: rabbit, in vivo
[1] = cynomolgus monkey, in vivo

Row | Molecule | Blood sample, B. anthracis positive culture, Study Day 34 (end of study) (B. anthracis) | Blood sample, B. anthracis positive culture, moribund euthanized or found dead (B. anthracis) | Tissue (spleen) sample, B. anthracis positive culture, Study Day 34 (end of study) (B. anthracis) | Tissue (spleen) sample, B. anthracis positive culture, moribund euthanized or found dead (B. anthracis) | Blood sample, B. anthracis positive culture, Study Day 34 (end of study) (B. anthracis; iv) | Tissue (spleen) sample, B. anthracis positive culture, Study Day 34 (end of study) (B. anthracis; iv) | bioavailability of IM anti-PA as compared to IV administration [1] [%] | clearance (in words) [1] | volume of distribution at a steady-state (in words) [1] | AUC (0-inf) dose dependency (in words) ([1]; im, 10 mg/kg)
1 | C[C@H]1COc2c(N3CCN(C)CC3)c(F)cc3c(=O)c(C(=O)O)cn1c23 [Levofloxacin, levofloxacin, reference compound] | 0/4 | 8/8 | 0/4 | 7/8 |  |  |  |  |  | 
2 | B1 | 0/4 |  | 0/4 |  | 0/4 | 0/4 | 83 | lower clearance | small volume of distribution | linear by dose
